The sequences below were run on K4 kissing-loop RNA reporter (assay: apparent KD of K4 kissing-loop reporter; higher = weaker reporter binding). Settings: Eterna round: R107; input ligand: arginine 13.2 mM.
Procedure: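 RNA-MaP round R107: designed RNA switches with theophylline, tryptophan, arginine or FMN aptamers are transcribed on-chip within common flanks. They are titrated with a labelled K4 kissing-loop RNA reporter in RNA-MaP buffer (100 mM Tris pH 7.5, 80 mM KCl, 4 mM MgCl2), without ligand or with the indicated ligand. Median apparent KD per design.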
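Note: bound reporter read as fluorescence of individual clusters on recovered sequencing chips by microscopy, with normalized cluster intensities fitted with a binding model.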

Sequence	apparent KD of K4 kissing-loop reporter [nM]
UUAGUAUAGAGAGGAUAUACCUUCCAGUGAUGUUGGAUAGAUGAAUUUAAUCAUCAAGCAUAGCUUGUAGAAGGCUCUAUACAUU [AK1 SS FMN B]	558
CAACCGUAACACGAUACCAGCCUAGAAGCCAGUGAUGUUGGCCUUUUUUCGGAAAUGAAAGGCCCUUGGCAGCGUGGAUAAAAUG [Lelabiised]	464
UGUGGAGGAUAUGAUACCAGCAGUGAGAGAGAGGAAGUAUAGUGAUGUUAUAUGAGAGAAUGCCCUUGGCAGCGUAUGUAGUAGG [SSTheophylB.I]	210
AACUGUCAAGGACAACAUUACUGAGGUGAUACCAGCAUCGAAAGAUGCCCUUGGCAGCACCAACUUGCAGUGAUGUUGCAAGUAA [Design6]	184
CGCAGUGAUGUUGCUUAUAUUCUUGGUUAACGAGGACCGGUACGGCCGCCACUCGAUUUCUAACUAUUCCAGUGUUAAUUUGAGU [JR_ExcTryptoA_Sub006]	488
UCCUGCAAUCUGCCACGAAAGUGGGUUGAUACCAGAGUCGAAAGACUCCCUUGGCAGCGAGUGAUGUUCGUUGCAGGUGUAUAAA [MatMod 10 - Jieux - Exclusion - Theophylline A]	184
AGUAGAGCAUCAGAUACCAGACAGAACUGAUGGUAAGGAGUGAUGUUCCUUAAUCAGCUUGUCCCUUGGCAGCUGAUAGUAGUCA [#14 K4 Theophylline B Same State]	417
UUCUACGAGUGAUGUUCGUAGUGUAUUCACUAGGAUAUCGUUUUUUCGAGAAGGAGUGAGGAAGUGAUACGAAAGUAUCGCUUCC [FMN A 15]	353
ACUAAGGUUUUUGGAGCAGUGAUGUUGCUCCGAGGACCGGUACGGCCGCCACUCGGUGCAUGUAUGCGCUUCACUCCGGAAGUUG [Bieron]	140
GGUUCGAGUGAUGUUCGGGUCGAUUGGGAAGGAGCGCCCGGAAGGGCAGGUAGGUCGCCCGGGCCGCGCGGGAAACCGCGCGUCC [#2 Same State - Arginine A Attempt #7 (HarryS)]	121
UUUAUAAUGUCGGCCGCCACUGGAUUAAUAUUUGUAUAAUCUAGUUCUGAGUGAUGUUUAGAGUCCAGGACCGGGACAUUUGUUA [#10 K4 Tryptophan B Exclusion]	515
GCCGUAGAUGGAAGGAGCGAGGUAGACUGUUGAAGUGAUGUUUCAACUCAUUAAGCCCAACCUCAGGUAGGUCGCCAUCUACGGC	110
UGAUAGGACAGAAGGAGCGGUAGUGAUGUUGCCAAAAGAAUAAGGUGUCAAAAGACACCCUACCAGGUAGGUCGCUGUCCUAUCU	368
CGCAGUGAUGUUGCGAGUUUAUUCAGGGAAGGAGCGCCACAGAUGGCAGGUAGGUCGCCCACGCAGUGAUGUUGUGUAUUCGGGU [Exclusion Arginine A GF 3]	128
UUUUAGGUAUCUGAUACCAGAGAAAAUAUAUGUAGUGAUGUUAUAUACAAAAUAAUUAAGCUCCCUUGGCAGCAGUAUUAAUUUU [AstrosExc-TheB#3]	742
UGCGCUGUGUACUGAAAUGUUCUGCGGGAUACCAGAGUCUUUUUAUUCCCUUGGCAGCUUGAGUGAUGUUUGAUGCCGUUCUUGU [tffeymullin]	279
GAAUUAUGUAGAAGGAGCGUUAGAAGGUAUAGGUGCGAGUGAUGUUUGGACUUGUUAAUUUGACAGGUAGGUCGCUACAGAAGGA [KL-SSArg B19 #analogue]	281
UAAUGCAUGACGGCCGCCACUAGUACUGGAGUGAUGUUGUGGUACGGCGGCAGUUUAGGGUGGACUAGGACCGGGUCAUGCAUAU [KL-XTryp-B10 #analogue]	314
GCCAGGCAUCUGCAGAGUGAUGUUCAAAAGCGAGGACCGGUACGGCCGCCACUCGAAAGCAGAUGCCUGGGCGUACAAAGUACGC [idea]	262
UUGAGCCUGACGCAAGUCAGGCUCUGCGAGCGAGGACCGGUACGGCCGCCACUCGGUGCAGUGAUGUUGCAUGGCCGCAAGGCCG [#2 Exclusion - Tryptophan A Attempt #17 (HarryS)]	299
AUUGAUAUAUAUAUUUGAUUUUUAUGUGAUACCAGACAAGGCAUAGUCCCUUGGCAGCACUUUAUAUUUACGAGUGAUGUUCGUA [JR_SSTheophyA_Sub025]	180
CAAUGAGUAUAAGAUGAUAUCAUAACAGAAGGAGCGAGUGAUAACUCAGGUAGGUCGCUGAAUUUAUCGAGUGAUGUUCGAUAGA [whbob_SS_Arginine_A_sa117]	162
AGACUUCACCGAAGGAGCGACGUAGCCUAGUGAUGUUAGGCACGAGAGAAAUCUCGUGUACGUCAGGUAGGUCGCGGUGAAGUCA [Omei KL Arginine B SS C v5]	630
UAGAGAUCGAGAAGGAGCGAGAAAGCUAGUACAUAUGUACUAGCAAAGCAGUGAUGUUGCACUCAGGUAGGUCGCUCGAUCUCAU [AK1.1 SS Arginine B]	267
UGCACGGGCUCGGCCGCCACUCCCGCGGGUCGGAAGGUCCGCUACUGAGUGAUGUUCGGUUGGAGGAGGACCGGGAGCCCGUGCA [#2 Exclusion - Tryptophan B Attempt #26 (HarryS)]	109
CGUUUAGUGAUGUUAAGCGUCCACUACGAUACCAGAACUAUAACCUUCCCUUGGCAGCGUUUAUAUUGUAACUCAUGUGUUAAUU [theeternabot_exclusion_KL_Theo_A_11]	296
GCCGUACGCAUGGAUACCAGAGAUGUUAGUCUCGAUGCCAGUGAUGUUGGCUAUAGCAUACUCCCUUGGCAGCCAUGCGUACGGC	113

Reference: the supplement of paper PMC9170038
